# Where no end group is shown, it is not given here.
# T1: Biotin.TTR40-49 (human, not fully specified (N-terminus))
# T1 chain: TWEPFASGKT
# T2: TTR40-49 (human)
# T2 chain: TWEPFASGKT
# Columns and labels:
# Biotin.TTR40-49 = molecular target: T1, Biotin.TTR40-49; test: ELISA
# TTR34-54cyc [1] = molecular target: T3, TTR34-54cyc (human, cyclic, disulfide between the two Cys in the poly-Gly linkers); test: ELISA, ELISA-1
# TTR34-54cyc [2] = molecular target: T3, TTR34-54cyc; test: ELISA, ELISA-2
# TTR40-49 = molecular target: T2, TTR40-49; test: ELISA
# mis.WT-TTR [3] = molecular target: mis.WT-TTR (human); test: ELISA, ELISA-1
# mis.WT-TTR [4] = molecular target: mis.WT-TTR (human); test: ELISA, ELISA-2
# T3 sequence (chain, as listed by the source): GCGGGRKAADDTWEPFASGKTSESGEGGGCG
binding result (Biotin.TTR40-49),EC50 (TTR34-54cyc [1]) [nM],EC50 (TTR34-54cyc [2]) [nM],binding result (TTR40-49),EC50 (mis.WT-TTR [3]) [nM],EC50 (mis.WT-TTR [4]) [nM],Binder
no binding,0.027,0.66,no binding,–,–,"NI-301.37F1 (antibody, V domains shown) VH: QVQLQESGPGLVKPSETLSLTCSVSGGSIISRSSYWGWIRQPPGKGLEWIGGIYHSGNTYDNPSLKSRLTMSVDTSKNQFSLNLRSVTAADTAVYYCARIVPGGDAFDIWGQGTMVTVSS VL: DIQMTQSPSSLSASVGDRVTIACRASQSVGTYLNWYQQKRGKAPKLLIFAASSLQSGVPSRFSGSGSGTDFTLTISSLQPEDFATYYCQQSYSSPPTFGQGTKVEIK"
–,–,–,–,0.338,8.3,"NI-301.37F1 (antibody, V domains shown, plasma-purified wild-type TTR, misfolded/aggregated at pH 3.0) VH: QVQLQESGPGLVKPSETLSLTCSVSGGSIISRSSYWGWIRQPPGKGLEWIGGIYHSGNTYDNPSLKSRLTMSVDTSKNQFSLNLRSVTAADTAVYYCARIVPGGDAFDIWGQGTMVTVSS VL: DIQMTQSPSSLSASVGDRVTIACRASQSVGTYLNWYQQKRGKAPKLLIFAASSLQSGVPSRFSGSGSGTDFTLTISSLQPEDFATYYCQQSYSSPPTFGQGTKVEIK"

# — patent US20260374812 (published 2026)
